Laboratory results from patent EP3443010B1.
Residue numbers refer to the chain shown, from its start.

B1: HEFLA (antibody, human IgG4 S228P, kappa, V domains shown)
VH: EVQLVQSGAEVKKPGESLRISCKASGYSFTSYWVHWVRQMPGKGLEWMGNIDPSDSDTHYSPSFQGHVTLSVDKSISTAYLQLSSLKASDTAMYYCVRGGTGTLAYFAYWGQGTLVTVSS
VL: DVVMTQSPLSLPVTLGQPASISCRSSQSLVHSYGNTYLYWYQQRPGQSPRLLIYRVSNRFSGVPDRFSGSGSGTDFTLKISRVEAEDVGVYFCFQGTHVPYTFGGGTKVEIKR
B2: HFLB (antibody, human IgG4 S228P, kappa, V domains shown)
VH: B1 VH with L104M
VL: B1 VL with Y41F, F92Y
B3: HEFLB (antibody, human IgG4 S228P, kappa, V domains shown)
VH: B1 VH
VL: B1 VL with Y41F, F92Y
B4: HFLA (antibody, human IgG4 S228P, kappa, V domains shown)
VH: B1 VH with L104M
VL: B1 VL
B5: HALA (antibody, human IgG4 S228P, kappa, V domains shown)
VH: B1 VH with S28T, M48I, S61N, P62Q, S63K, Q65K, G66D, L104M, Y106W
VL: B1 VL
B6: HALB (antibody, human IgG4 S228P, kappa, V domains shown)
VH: B1 VH with S28T, M48I, S61N, P62Q, S63K, Q65K, G66D, L104M, Y106W
VL: B1 VL with Y41F, F92Y
B7: HBLA (antibody, human IgG4 S228P, kappa, V domains shown)
VH: B1 VH with S61N, P62Q, S63K, Q65K, G66D, L104M, Y106W
VL: B1 VL
B8: HBLB (antibody, human IgG4 S228P, kappa, V domains shown)
VH: B1 VH with S61N, P62Q, S63K, Q65K, G66D, L104M, Y106W
VL: B1 VL with Y41F, F92Y
B9: Kwar23 (antibody, from another filing, V domains shown)
VH: EVQLQQSGAELVKPGASVKLSCTASGFNIKDYYIHWVQQRTEQGLEWIGRIDPEDGETKYAPKFQDKATITADTSSNTAYLHLSSLTSEDTAVYYCARWGAYWGQGTLVTVSS
VL: QIVLTQSPAIMSASPGEKVTLTCSASSSVSSSYLYWYQQKPGSSPKLWIYSTSNLASGVPARFSGSGSGTSYSLTISSMEAEDAASYFCHQWSSYPRTFGAGTKLELK
B10: HELA (antibody, human IgG4 S228P, kappa, V domains shown)
VH: B1 VH with Y106W
VL: B1 VL
B11: HCLA (antibody, human IgG4 S228P, kappa, V domains shown)
VH: B1 VH with L104M, Y106W
VL: B1 VL
B12: HELB (antibody, human IgG4 S228P, kappa, V domains shown)
VH: B1 VH with Y106W
VL: B1 VL with Y41F, F92Y
B13: HCLB (antibody, human IgG4 S228P, kappa, V domains shown)
VH: B1 VH with L104M, Y106W
VL: B1 VL with Y41F, F92Y

These binders were tested against recombinant hSIRPa (Sino Biologicals, reference 11612-H08H) (human) (UniProt P78324) (assay: ELISA, hSIRPa (Sino 11612-H08H) coated at 0.5 ug/ml, anti-human IgG detection; first experiment).
Sequence of recombinant hSIRPa (Sino Biologicals, reference 11612-H08H) (human) (P78324 31-370): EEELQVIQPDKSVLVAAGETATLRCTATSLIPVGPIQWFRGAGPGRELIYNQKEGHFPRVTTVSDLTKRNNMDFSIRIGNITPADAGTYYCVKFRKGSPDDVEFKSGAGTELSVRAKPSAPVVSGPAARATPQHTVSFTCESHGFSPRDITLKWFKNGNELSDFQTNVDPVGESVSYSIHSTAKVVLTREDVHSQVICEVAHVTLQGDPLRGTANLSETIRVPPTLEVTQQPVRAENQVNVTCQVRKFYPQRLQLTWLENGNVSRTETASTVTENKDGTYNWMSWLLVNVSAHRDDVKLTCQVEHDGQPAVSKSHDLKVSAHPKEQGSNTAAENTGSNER

With B1 as the binder, how does the EC50 read?
Its EC50 is 7.1 ng/mL.

For B2, which EC50 is on record?
The EC50 was 4 ng/mL.

Which EC50 does the source give for B3 here?
Its EC50 is 4.4 ng/mL.

With B4 as the binder, how does the EC50 read?
Its EC50 is 5.1 ng/mL.

B5 was tested. Which EC50 did it give?
The EC50 was 3.9 ng/mL.

Each binder was assayed against recombinant hSIRPa (Sino Biologicals, reference 11612-H08H) (human) (UniProt P78324) (assay: ELISA, hSIRPa (Sino 11612-H08H) coated at 0.5 ug/ml, anti-human IgG detection; third experiment).

For B6, which EC50 is on record?
Its EC50 is 2.53 ng/mL.

B7 was tested. Which EC50 did it give?
The EC50 was 2.68 ng/mL.

How did the EC50 turn out when B8 was run?
Its EC50 is 2.95 ng/mL.

These binders were tested against recombinant hSIRPa (Sino Biologicals, reference 11612-H08H) (human) (UniProt P78324) (assay: ELISA, hSIRPa (Sino 11612-H08H) coated at 0.5 ug/ml, anti-human IgG detection).

How did the EC50 turn out when B9 was run?
The EC50 was 3.3 ng/mL.

Each binder was assayed against recombinant hSIRPa (Sino Biologicals, reference 11612-H08H) (human) (UniProt P78324) (assay: ELISA, hSIRPa (Sino 11612-H08H) coated at 0.5 ug/ml, anti-human IgG detection; second experiment).

With B10 as the binder, how does the EC50 read?
Its EC50 is 4.61 ng/mL.

How did the EC50 turn out when B11 was run?
The EC50 was 5.6 ng/mL.

How did the EC50 turn out when B12 was run?
The EC50 was 4.13 ng/mL.

How did the EC50 turn out when B13 was run?
The EC50 was 5.59 ng/mL.
